In patent US20260151501A1, “ANTIBODY-DRUG CONJUGATE COMPRISING ANTI-CLAUDIN-18.2 ANTIBODY, AND THERAPEUTIC USE THEREOF FOR CANCER” (ABTIS CO., LTD., priority 2022, published 2026):

Experiments:
[1] = biological target: claudin18.2 protein (CLDN18.2) on CLDN18.2-positive cancer cell lines (MIA PaCa-2~CLDN18.2, SNU601, PATU8988S, NUGC-4) (UniProt P56856); experiment: cell-based or functional assay
[2] = biological target: claudin18.2 protein (CLDN18.2) on CLDN18.2-positive cancer cell lines (MIA PaCa-2~CLDN18.2, SNU601, PATU8988S, NUGC-4) (UniProt P56856); experiment: cell-based ELISA (OD 450 nm), SNU601 (CLDN18.2+) cells; set-up: unit not given here
[3] = biological target: claudin18.2 protein (CLDN18.2) on CLDN18.2-positive cancer cell lines (MIA PaCa-2~CLDN18.2, SNU601, PATU8988S, NUGC-4) (UniProt P56856); experiment: cell-based ELISA (OD 450 nm), PATU8988S (CLDN18.2+) cells
[4] = biological target: claudin18.2 protein (CLDN18.2) on CLDN18.2-positive cancer cell lines (MIA PaCa-2~CLDN18.2, SNU601, PATU8988S, NUGC-4) (UniProt P56856); experiment: cell-based ELISA (OD 450 nm), MIA PaCa-2 (CLDN18.2+) cells
[5] = biological target: CLDN18.2~VLP (virus-like particle) expressing the claudin18.2 protein, CSB-MP005498HU (A5), CUSABIO (UniProt P56856); experiment: indirect ELISA (OD 450 nm) on coated CLDN18.2 VLP, regression in GraphPad Prism
[6] = biological target: claudin18.2 protein (CLDN18.2) on CLDN18.2-positive cancer cell lines (MIA PaCa-2~CLDN18.2, SNU601, PATU8988S, NUGC-4) (UniProt P56856); experiment: cell-based ELISA, PATU8988S (CLDN18.2+) cells; given as Kd, text calls it EC50
[7] = biological target: claudin18.2 protein (CLDN18.2) on CLDN18.2-positive cancer cell lines (MIA PaCa-2~CLDN18.2, SNU601, PATU8988S, NUGC-4) (UniProt P56856); experiment: cell-based ELISA, MIA PaCa-2 (CLDN18.2+) cells; given as Kd, text calls it EC50
[8] = biological target: T1, claudin18.2 protein (CLDN18.2) (Homo sapiens, UniProt P56856); experiment: Indirect ELISA binding to CLDN18.2 VLP; settings: CLDN18.2 (antigen protein) VLP, OD at 450 nm
T1 construct: purchased CUSABIO TECHNOLOGY LLC CSB-MP005498HU (A5)
Description: (§1) OD value measurement through ELISA was performed by measuring the absorbance at 450 nm using a UV-Vis spectrometer.
To confirm the binding strength to an antigen, a CLDN18.2˜VLP (virus-like particle) expressing the claudin18.2 protein (CLDN18.2) was prepared. At this time, CLDN18.2˜VLP is CSB-MP005498HU (A5) from CUSABIO TECHNOLOGY LLC.
After a 96-well plate was coated with the CLDN18.2 VLP for ELISA and treated with each of antibody-A and ADC-A, indirect ELISA was performed to measure OD values.
The measured results were used for a regression analysis in GraphPad PRISM® 9.0 software to calculate EC50 and Bmax. The antigen binding affinity of antibody-A, ADC-A, antibody-B, and ADC-B were evaluated based on the calculated values.

[9] = tested on: MIA PaCa-2˜CLDN18.2 cell line; experiment: Cell-based ELISA binding to MIA PaCa-2˜CLDN18.2 cells
Description: as §1
(§2) Four types of cell lines (MIA PaCa-2˜CLDN18.2, PATU8988S, parental MIA PaCa-2 (CLDN18.2-), and SNU601) were prepared. At this time, MIA PaCa-2˜CLDN18.2 and PATU8988S are CLDN18.2-positive pancreatic cancer cell lines. MIA PaCa-2 (CLDN18.2-) is a CLDN18.2-negative pancreatic cancer cell line. SNU601 is a CLDN18.2-positive gastric cancer cell line.
(§3) The prepared cell lines were cultured in DMEM containing 10% FBS and 1% penicillin/streptomycin (MIA PaCa-2˜CLDN18.2, MIA PaCa-2 (CLDN18.2-)), RPMI1640 containing 10% FBS and 1% penicillin/streptomycin (SNU601), and DMEM containing 5% FBS, 5% serum, 1% penicillin/streptomycin, and 2 mM L-glutamine (PATU8988S) in an incubator under the conditions of 37° C. and 5% CO2.
(§4) The prepared cell lines were plated on 96-well plates for culture, and then treated with each of antibody-A, ADC-A, antibody-B, and ADC-B. Thereafter, cell-based ELISA was performed, and OD values were measured.
(§5) The measured results were used for a regression analysis in GraphPad PRISM® 9.0 software to calculate EC50 and Bmax. The cell binding affinity of antibody-A, ADC-A, antibody-B, and ADC-B to each cell line was evaluated based on the calculated values.

SNU601 cell line = experiment: Cell-based ELISA binding to SNU601 cells; settings: SNU601 (CLDN18.2+)
Description: as §1, §2, §3, §4, §5

PATU8988S cell line = experiment: Cell-based ELISA binding to PATU8988S cells; settings: PATU8988S (CLDN18.2+)
Description: as §1, §2, §3, §4, §5

[10] = tested on: MIA PaCa-2 (CLDN18.2-) cell line; experiment: Cell-based ELISA binding to MIA PaCa-2 (CLDN18.2-) cells; settings: CLDN18.2 negative cell line
Description: as §1, §2, §3, §4, §5

Sequence of Antibody-B (zolbetuximab antibody) (VH): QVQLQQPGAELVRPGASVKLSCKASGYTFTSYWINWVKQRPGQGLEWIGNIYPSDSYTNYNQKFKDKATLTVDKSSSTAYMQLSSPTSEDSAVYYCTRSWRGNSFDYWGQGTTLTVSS
Sequence of Antibody-B (zolbetuximab antibody) (VL): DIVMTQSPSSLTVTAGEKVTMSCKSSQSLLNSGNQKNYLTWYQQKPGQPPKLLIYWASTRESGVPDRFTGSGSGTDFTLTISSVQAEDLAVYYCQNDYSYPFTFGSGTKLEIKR
Sequence of ADC-B (antibody-B conjugated with MMAE) (VH): as the sequence (VH) above
Sequence of ADC-B (antibody-B conjugated with MMAE) (VL): as the sequence (VL) above

ADC-B (antibody-B conjugated with MMAE) gave an IC50 (nM), cell viability (CellTiter-Glo), MIA PaCa-2 (CLDN18.2+) [1] of 2.12 nM, an IC50 (nM), cell viability (CellTiter-Glo), NUGC4 (CLDN18.2+) [1] of 20 nM and an IC50 (nM), cell viability (CellTiter-Glo), PATU8988S (CLDN18.2+) [1] of 7.19 nM. It also gave an IC50 (nM), cell viability (CellTiter-Glo), SNU601 (CLDN18.2+) [1] of 10.4 nM, a Bmax [2] of 2.8 and a Bmax [3] of 2.33. The Bmax [4] was 3.33, the Bmax [5] was 2.87 and the Kd [6] was 10.5 nM. It also gave a Kd [7] of 0.065 µg/mL.
Antibody-B (zolbetuximab antibody) gave a Bmax [2] of 1.7, a Bmax [3] of 1.21 and a Bmax [4] of 3.05. For the same substance, the Bmax [5] was 2.13 and the Kd [6] was 12.5 nM.
With “zolbetuximab [Antibody-B, reference compound]” the Bmax [8] was 2.134, the Bmax [9] was 3.053 and the Bmax (SNU601 cell line) was 1.701. The Bmax (PATU8988S cell line) was 1.214 and the “binding to parental MIA PaCa-2” value [10] was “none of the test substances bound”.
